# In patent US10624968B2, “Compounds for treating cancer” (Bicycle Therapeutics Limited, priority 2017, dated 2020):
# Read-outs that look alike come from different tables or passages of the source. Starred links: 1 amine or outer side, 2 acyl side, 3 side chain; linkers in the order of their positions; H or OH if unused. Positions of bridges follow the written chain, without caps; N, C: chain ends. Non-standard residues stand in square brackets, D forms with d. Residues, ends and D or L forms follow the SMILES beside them. Chains are numbered I, II in the order given. ξ: configuration not given here. *: point of attachment. Dolaproine = CO[C@@H]([C@@H]1CCCN1)[C@@H](C)C(=O)O; Dil = CC[C@H](C)[C@H](NC)[C@@H](CC(=O)O)OC; TBMB = c1c(C[*:1])cc(C[*:3])cc1C[*:2]; X2 = O=C(CCCC(=O)[*:2])NCCC(=O)[*:1]; PABC = O=C(OCc1ccc(N[*:1])cc1)[*:2]; X1 = C[C@@H](N*)[C@@H](O)c1ccccc1; ξ1Nal = NC(Cc1cccc2ccccc12)C(=O)O; Cit = NC(=O)NCCC[C@H](N)C(=O)O; NMeV = CN[C@H](C(=O)O)C(C)C; ξY = NC(Cc1ccc(O)cc1)C(=O)O; ξTle = CC(C)(C)C(N)C(=O)O; ξF = NC(Cc1ccccc1)C(=O)O; ξE = NC(CCC(=O)O)C(=O)O; ξD = NC(CC(=O)O)C(=O)O; ξN = NC(=O)CC(N)C(=O)O; ξC = NC(CS)C(=O)O; ξA = CC(N)C(=O)O; Sar = CNCC(=O)O
# Tests used:
# [1] = system: 11 tumor cell lines; test: 11 cancer cell line panel cytotoxicity, statements on the whole panel; details: all tested cell lines; 72 hours
# Excerpt: Details of the initial cell plating procedure are described in Table 3.
# Data Details for Tables 5 and 6. Inhibition %=(Max−Sample value)/(Max−Min)*100.
# The IC50 curves were generated by 4 Parameter Logistic Model—Sigmoidal Dose-Response Model as follows: Y=Bottom+(Top−Bottom)/(1+10^((log EC50-X)*HillSlope)).
# [2] = Body weight in HT1080 xenograft model (Example 7); format: in vivo; details: any of the doses tested (1, 3, and 10 mg/kg)
# Protocol: I-1a was evaluated in a HT1080 xenograft model at 1, 3, and 10 mg/kg. Additionally the ability of the binding peptide (the Bicycle+Spacer of I-1a, structure shown in Example 6) to abrogate activity when dosed at a 100-fold excess immediately before treatment with I-1a in the HT1080 xenograft model was assessed.
# [3] = Tolerability (body weight) in LU-01-0486 NSCLC PDX model; format: in vivo, mouse
# Protocol: All the procedures related to animal handling, care and the treatment in the study were performed following the guidance of the Association for Assessment and Accreditation of Laboratory Animal Care (AAALAC). At the time of routine monitoring, the animals were daily checked for any effects of tumor growth and treatments on normal behavior such as mobility, food and water consumption (by looking only), body weight gain/loss (body weights were measured twice weekly), eye/hair matting and any other abnormal effect as stated in the protocol. Death and observed clinical signs were recorded on the basis of the numbers of animals within each subset.
# [4] = system: HT1080 cells; test: Cytotoxicity in HT1080 cells in presence and absence of 1 mM bacitracin (ATPlite, 24 hour exposure)
# Protocol: HT1080 cells (ATCC, via LGC, BIC918) Maintained in EMEM media (Sigma M2279)+10% FBS (Sigma Code F7524)+4 mM L-Glu (Invitrogen Cat 25030-024)
# I-1a and Toxins with Bacitracin—24 or 72 Hour Exposure in 96 Well Plates
# DB seeded cells in normal media, 75 μL in 96 well clear plates, ˜24 hours previous.
# HT1080—7.5 k cells/well: 50% confluent upon dosing.
# Dilute in media 1:42.85=5 μL DMSO dilute+209 μL media=>use 15 μL per well
# This gives a 5 μM top concentration for BDCs in assay
# Add 10 µL of media±bacitracin (2 plates of each)−leave for 1 hr
# Bacitracin=1 mM final concentration. This requires a 10 mM concentration with no DMSO.
# Add 15 μL treatment per well as in Table 19, below.
# Seal plates with gas permeable membrane and incubate at 37° C.
# Washout HT1080 plates with 2×150 μL PBS at 24 h and add 100 μL fresh media
# At t=72 h, equilibrate ATPlite reagent to room temperature. Add 10 ml buffer to each vial of lyophilized substrate. Add 100 μL reagent per well. Seal with PCR seal and cover to protect from light. Shake for 20 mins before reading luminescence
# [5] = Plasma stability (LC-MS/MS assay), human plasma; format: in vitro ADME; details: pH 7.4 at 37° C.
# Protocol: I-1a plasma stability studies were conducted in human and mouse plasma.
# In vitro plasma stability assay measures the extent of degradation of compounds in plasma.
# Peptides or BDCs are incubated at 37° C. in plasma (mouse or human) at low micromolar concentrations for several hours. The stability is quantitatively measured by LC-MS/MS.
# Add 8 μL of the 160 μM DMSO stock of peptide or BDC and add 8 μL of 160 μM DMSO stock of 06-34-18-N182 as internal standard to 304 μL of plasma (152 μL*2) for a final concentration of 4 μM (5% DMSO).
# Incubate at 37° C. in 100% humidity.
# Pipette out 40 μL for 7 timepoints: time 0, 1 h, 2 h, 4 h, 6 h, 8 h, 24 h into a 1.5 mL Eppendorf. Store at −80° C. immediately. (total volume of samples?×40=280 μL).
# Add to the sample the extraction solvent. The extraction solvent contains 1 part of water, 3 parts of methanol, and 3 parts of acetonitrile.
# To the time course samples add 120 μL of extraction solvent, mix thoroughly with pipette and gently vortex.
# Centrifuge for 40 minutes at 14000 rpm at 4° C. […]
# It is recommend to follow one transition for the peptide of BDCs to study, and one transition for the internal standard 06-34-18-N182 at the same time. The most relevant Selected Ion Reaction (SIR) and Multiple Reaction Monitoring (MRM) transitions were determined for each peptide or BDC. […]
smiles,measurement,setting,value
CC[C@H](C)[C@@H]([C@@H](CC(=O)N1CCC[C@H]1[C@H](OC)[C@@H](C)C(=O)N[C@H](C)[C@@H](O)c1ccccc1)OC)N(C)C(=O)[C@@H](NC(=O)[C@H](C(C)C)N(C)C(=O)OCc1ccc(NC(=O)[C@H](CCCNC(N)=O)NC(=O)[C@@H](NC(=O)CCCC(=O)NCCC(=O)N(C)CC(=O)N(C)CC(=O)N(C)CC(=O)N(C)CC(=O)N(C)CC(=O)N(C)CC(=O)N(C)CC(=O)N(C)CC(=O)N(C)CC(=O)N(C)CC(=O)NC(C)C(=O)NC2CSCc3cc4cc(c3)CSCC(NC(=O)C(C)NC(=O)C(Cc3cccc5ccccc35)NC(=O)C(CCC(=O)O)NC(=O)C(CC(N)=O)NC(=O)C(C)NC2=O)C(=O)NC(CCC(=O)O)C(=O)NC(CC(=O)O)C(=O)NC(Cc2ccccc2)C(=O)NC(Cc2ccc(O)cc2)C(=O)NC(CC(=O)O)C(=O)NC(C(C)(C)C)C(=O)NC(C(N)=O)CSC4)C(C)C)cc1)C(C)C (some centres unmarked) [Compound I-1a] (I: [Sar][Sar][Sar][Sar][Sar][Sar][Sar][Sar][Sar][Sar][ξA][ξC][ξA][ξN][ξE][ξ1Nal][ξA][ξC][ξE][ξD][ξF][ξY][ξD][ξTle][ξC]-NH2 / II: V[Cit][PABC][NMeV]V[Dil][Dolaproine]-X1; linker I:12-I:18-I:25 via TBMB; linker I:N-II:N via X2),cytotoxic activity over the cell line panel (in words),[1],works well on all cell lines except HCT-15
same,effect on body weight (in words),[2],No dose-related effects on body weight
same,effect on body weight (in words),[3]; 1 mg/kg,no significant effect on body weight
same,effect on body weight (in words),[3]; 3 mg/kg,without significant effect on body weight
same,IC50,"[4]; read-out: IC50 with 1 mM bacitracin, 24 hour exposure, + 1 mM bacitracin (PDI inhibitor)",7.3 nM
same,IC50,"[4]; read-out: Standard IC50, 24 hour exposure (high MT1 expression), no block",5.3 nM
same,half-life at 1 μM,[5],> 24 h
same,"remaining at 24 h, 1 μM",[5]; read-out: % remained after 24 hours incubation,96%
